In US20120220522A1 one finds relative activity (relative binding affinity) data, which are given here for one substance.

Some results are limits rather than exact numbers.

The experiment deals with insulin receptor (IR), B-isoform (UniProt P06213). Put plainly: relative binding affinity to insulin receptor, displacement of 125I-human insulin. On the technique in general: Displacement assays read how much labelled ligand stays bound in the presence of the test substance.

As to “ester insulin lispro folded (2) (ligand)”, the relative activity (relative binding affinity) is < 0.5%.
